Test results published in patent US20160355587A1 (CYTOMX THERAPEUTICS, published 2016).
Substitutions are numbered along the chain they refer to.

T1: human CD166 protein (human, UniProt Q13740 28-526, limits assumed)
T1 construct: Isolated human CD166 protein coated on ELISA plates; also called ALCAM
T1 sequence (looked up): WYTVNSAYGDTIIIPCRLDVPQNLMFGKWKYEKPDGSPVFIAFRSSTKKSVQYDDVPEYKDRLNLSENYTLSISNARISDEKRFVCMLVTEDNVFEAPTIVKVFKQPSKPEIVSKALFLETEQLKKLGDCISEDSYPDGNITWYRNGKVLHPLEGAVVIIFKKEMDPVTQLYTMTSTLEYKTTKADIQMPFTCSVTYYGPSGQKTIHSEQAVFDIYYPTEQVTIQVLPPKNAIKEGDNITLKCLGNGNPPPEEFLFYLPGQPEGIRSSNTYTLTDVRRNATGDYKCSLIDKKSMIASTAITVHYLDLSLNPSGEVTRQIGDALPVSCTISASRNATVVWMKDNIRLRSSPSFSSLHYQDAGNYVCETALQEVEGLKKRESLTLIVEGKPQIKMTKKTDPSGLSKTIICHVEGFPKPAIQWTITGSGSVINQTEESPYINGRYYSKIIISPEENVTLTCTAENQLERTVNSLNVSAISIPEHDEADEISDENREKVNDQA

B1: CD166-M9 antibody (mouse anti-CD166 Mab M9) (antibody, V domains shown)
VH: QVTLKESGPGILQPSQTLSLTCSFSGFSLSTYGMGVGWIRQPSGKGLEWLANIWWSEDKHYNSALKSRLTISKDTSNNQVFLKISSVDTADTATYYCVQIDYGNDYAFTYWGQGTLVTVSA
VL: DIVMTQAAFSNPVTLGTSASISCRSSKSLLHSNGITYLYWYLQKPGQSPQLLIYQMSNLASGVPDRFSSSGSGTDFTLRISRVEAEDVGVYYCAQNLELPYTFGGGTKLEIKR
notes: Obtained by mouse hybridoma technology; also called M9 mAb; muM9
B2: CD166-16522-2001 (antibody)
chain 1: QITLKESGPTLVKPTQTLTLTCTFSGFSLSTYGMGVGWIRQPPGKALEWLANIWWSEDKHYSPSLKSRLTITKDTSKNQVVLTMTNMDPVDTATYYCVQIDYGNDYAFTYWGQGTLVTVSS
chain 2: QGQSGQGLEGWCLHPLCLWGAGGGGSSGGSISSGLLSGRSDNHGGGSDIVMTQSPLSLPVTPGEPASISCRSSKSLLHSNGITYLYWYLQKPGQSPQLLIYQMSNLASGVPDRFSGSGSGTDFTLKISRVEAEDVGVYYCAQNLELPYTFGQGTKLEIK
B3: CD166-7614.5-2001 (antibody)
chain 1: B2 chain 1
chain 2: QGQSGQGLCHALVLSAWESCSSGGGSSGGSISSGLLSGRSDNHGGGSDIVMTQSPLSLPVTPGEPASISCRSSKSLLHSNGITYLYWYLQKPGQSPQLLIYQMSNLASGVPDRFSGSGSGTDFTLKISRVEAEDVGVYYCAQNLELPYTFGQGTKLEIK
B4: CD166-7614.7-2001 (antibody)
chain 1: B2 chain 1
chain 2: B3 chain 2 with A11P, V13A
B5: CD166-7614.9-2001 (antibody)
chain 1: B2 chain 1
chain 2: B3 chain 2 with A11P, W17A
B6: CD166-7614.10-2001 (antibody)
chain 1: B2 chain 1
chain 2: B3 chain 2 with A11P, E18A
B7: CD166-7614.11-2001 (antibody)
chain 1: B2 chain 1
chain 2: QGQSGQGCHPLVLSAWESCGGGSSGGSISSGLLSGRSDNHGGGSDIVMTQSPLSLPVTPGEPASISCRSSKSLLHSNGITYLYWYLQKPGQSPQLLIYQMSNLASGVPDRFSGSGSGTDFTLKISRVEAEDVGVYYCAQNLELPYTFGQGTKLEIK
B8: CD166-7614.12-2001 (antibody)
chain 1: B2 chain 1
chain 2: QGQSGQGHPLVLGGGSSGGSISSGLLSGRSDNHGGGSDIVMTQSPLSLPVTPGEPASISCRSSKSLLHSNGITYLYWYLQKPGQSPQLLIYQMSNLASGVPDRFSGSGSGTDFTLKISRVEAEDVGVYYCAQNLELPYTFGQGTKLEIK
B9: CD166-7614.13-2001 (antibody)
chain 1: B2 chain 1
chain 2: QGQSGQGHPLGGGSSGGSISSGLLSGRSDNHGGGSDIVMTQSPLSLPVTPGEPASISCRSSKSLLHSNGITYLYWYLQKPGQSPQLLIYQMSNLASGVPDRFSGSGSGTDFTLKISRVEAEDVGVYYCAQNLELPYTFGQGTKLEIK
B10: CD166-16522.14-2001 (antibody)
chain 1: B2 chain 1
chain 2: B2 chain 2 with W11A
B11: CD166-16522.15-2001 (antibody)
chain 1: B2 chain 1
chain 2: B2 chain 2 with L13A
B12: CD166-16522.16-2001 (antibody)
chain 1: B2 chain 1
chain 2: B2 chain 2 with H14A
B13: CD166-16522.17-2001 (antibody)
chain 1: B2 chain 1
chain 2: B2 chain 2 with P15A
B14: CD166-M9_vK2/HcC (antibody, V domains shown)
VH: B2 chain 1 with M84I, M87V
VL: DIVMTQSPLSLPVTPGEPASISCRSSKSLLHSNGITYLYWYLQKPGQSPQLLIYQMSNLASGVPDRFSSSGSGTDFTLKISRVEAEDVGVYYCAQNLELPYTFGQGTKLEIK
notes: Humanized M9
B15: CD166-M9_vK3a/HcC (antibody, V domains shown)
VH: B2 chain 1 with M84I, M87V
VL: B14 VL with K27Q, L59R, S69G
notes: Humanized M9
B16: CD166-M9_vK3b/HcB (antibody, V domains shown)
VH: B2 chain 1
VL: B14 VL with K27Q, L59R
notes: Humanized M9
B17: CD166-M9_vK3b/HcC (antibody, V domains shown)
VH: B2 chain 1 with M84I, M87V
VL: B14 VL with K27Q, L59R
notes: Humanized M9
B18: CD166-M9_vk3a/HcB (antibody, V domains shown)
VH: B2 chain 1
VL: B14 VL with K27Q, L59R, S69G
notes: Humanized M9

target: T1, human CD166 protein; test: ELISA, human CD166 protein coated; positive control
Protocol: The antibody CD166-M9 antibody comprising VH of SEQ ID NO: 119, VL of SEQ ID NO: 120 was used a positive control, and an isotype control antibody was used a negative control.
Using a standard ELISA protocol, human CD166 protein was absorbed to ELISA plates and subsequently incubated with the indicated concentration of antibody. Bound antibody was detected with an anti-human FAB-peroxidase secondary.

Binder | binding result
B1 | binds

target: T1, human CD166 protein; test: ELISA, human CD166 protein coated; apparent Kd

Binder | Kd
B2 | 424 nM
B3 | 495 nM
B4 | 619 nM
B5 | 534 nM
B6 | 685 nM
B7 | 544 nM
B8 | 332 nM
B9 | 77.7 nM
B10 | 422 nM
B11 | 448 nM
B12 | 47.4 nM
B13 | 61.6 nM

target: T1, human CD166 protein; test: ELISA, human CD166 protein coated, anti-human FAB-peroxidase

Binder | binding result
B14 | binds
B15 | binds
B16 | binds
B17 | binds
B18 | binds

target: T1, human CD166 protein; test: ELISA; relative to parental CD166 M9 vk1/HcB

Binder | Fold Increase in Kd
B2 | 95 fold
B3 | 112 fold
B4 | 139 fold
B5 | 120 fold
B6 | 154 fold
B7 | 123 fold
B8 | 75 fold
B9 | 18 fold
B10 | 95 fold
B11 | 101 fold
B12 | 11 fold
B13 | 14 fold
